Source: patent US20170319648A1
Positions of bridges follow the written chain, without caps; N, C: chain ends. Non-standard residues stand in square brackets, D forms with d. No end group written: not given here. hCys = N[C@@H](CCS)C(=O)O; Orn = NCCC[C@H](N)C(=O)O; Dab = NCC[C@H](N)C(=O)O

Biological target: TEAD
Assay: IC50 for TEAD binding; method not named in the example (TR-FRET test is the filing's screening method)

Chain of TEAD (P28347 209-426): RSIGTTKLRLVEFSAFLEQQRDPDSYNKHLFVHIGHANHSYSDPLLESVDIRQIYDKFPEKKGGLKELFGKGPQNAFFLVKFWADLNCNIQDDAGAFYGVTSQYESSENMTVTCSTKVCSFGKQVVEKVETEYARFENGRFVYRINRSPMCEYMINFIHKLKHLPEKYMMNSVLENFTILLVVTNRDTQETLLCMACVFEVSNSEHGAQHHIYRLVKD

IC50 [nM]	Binder
43	VPF[hCys]LR[Orn]LPDSFCKPPE (disulfide 4-13) [polypeptide of SEQ ID NO.: 5 (VPF(Hcy)LR(Orn)…)]
28	VPF[hCys]LR[Dab]LPDSFCKPPE (disulfide 4-13) [polypeptide of SEQ ID NO.: 6 (VPF(Hcy)LR(Dab)…)]
